Target: 3xFLAG-tagged nascent chain of Sec61β with the transferrin receptor TMD, truncated at position 128 (TMD exposed)
Test: co-IP; unbound fractions of the translation reactions after anti-FLAG purification of the RNCs, immunoblotted relative to serial dilutions of total lysate (depletion)

- percent of SRP in the lysate depleted: 90%
Substance: SRP54 subunit of the signal recognition particle (SRP) (from UniProt G1STX4 1-499) (natural protein)
